The values that follow come from US20250376696A1.

The test deals with SIRPα of non-obese diabetic (NOD) mice (mouse (NOD strain)) (UniProt O89094). Nature of the test: cell-based or functional assay.
UniProt O89094, sequence (O89094 168-257): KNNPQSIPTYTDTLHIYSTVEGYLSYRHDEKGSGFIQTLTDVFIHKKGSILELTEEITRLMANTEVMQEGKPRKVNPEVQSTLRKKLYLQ

As to “human CD47 on lentiviral vector (LV) particles (from UniProt Q08722 19-323) (receptor)”, the LV copies in plasmacytoid dendritic cells (pDC), NOD versus C57BL/6 mice is above 10 fold; the LV copies per cell (vector copy number, VCN) in sorted hepatocytes, NOD versus C57BL/6 mice amounted to 4 fold; the VCN in liver macrophages, NOD versus C57BL/6 mice was found to be 30 fold; the VCN in spleen, NOD versus C57BL/6 mice is 5 fold.
